Laboratory results reported in US20200055937A1 (REMD BIOTHERAPEUTICS, published 2020).
Numbering of substitutions follows the chain as printed. Values belong to the binder of their own block, whether it stands above or below them.

Legend:
CTLA4-his [1] = biological target: T1, CTLA4-his (UniProt P16410 36-161, limits assumed); assay: SPR Biacore T200, antibody from supernatant captured by anti-human Fc, CTLA4-his injected; supernatant antibody, off-rate ranking, 600 s dissociation
T1 construct: construct not described; also called Ag CTLA4-his; Antigen CTLA4-his; not shown: his tag
T1 sequence (looked up): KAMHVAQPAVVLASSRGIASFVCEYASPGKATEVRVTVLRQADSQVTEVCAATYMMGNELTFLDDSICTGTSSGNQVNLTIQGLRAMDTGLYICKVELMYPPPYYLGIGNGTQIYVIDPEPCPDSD
Procedure: (§1) Affinity ranking of the fifteen humanized antibodies was determined using a Surface Plasmon Resonance (SPR) biosensor, Biacore T200 (GE Healthcare). Anti-human Fc gamma specific antibody was immobilized onto the sensor chip using amine coupling method. […] After equilibration, Ag CTLA4-his was injected for 300 seconds (association phase) followed by the injection of running buffer for 600s (dissociation phase). Responses of reference flow cell (flow cell 1) were subtracted from those of humanized antibodies flow cells during each cycle. The surface was regenerated before the injection of other humanized antibodies. The process was repeated until all antibodies are analyzed. The off-rates of humanized antibodies were obtained from fitting the experimental data locally to 1:1 interaction model using the Biacore 8K evaluation software. The antibodies were ranked by their dissociation rate constants (off-rates, kd).

CTLA4-his [2] = biological target: T1, CTLA4-his; assay: SPR Biacore 8k, purified antibody captured on chip, CTLA4-his as analyte
Procedure: (§2) The affinities of purified antibody binding to CTLA4-his was determined using a Surface Plasmon Resonance (SPR) biosensor, Biacore 8k. Antibodies were immobilized on the sensor chip through capture method. Antigen CTLA4-his was used as the analyte. The data of dissociation (kd) and association (ka) rate constants were obtained using Biacore 8k evaluation software. The equilibrium dissociation constants (KD) were calculated from the ratio of kd over ka.

CTLA4-his [3] = biological target: T1, CTLA4-his; assay: SPR Biacore T200, antibody from supernatant captured by anti-human Fc, CTLA4-his injected
Procedure: as §1

CTLA4-Fc [4] = biological target: T2, CTLA4-Fc (UniProt P16410 36-161, limits assumed); assay: cell-based or functional assay
T2 sequence (looked up): T1 sequence (looked up)

CTLA4-his [5] = biological target: T1, CTLA4-his; assay: SPR Biacore 8k, purified antibody captured on chip, CTLA4-his as analyte; purified antibody, Biacore 8k
Procedure: as §2

CTLA4-Fc [6] = biological target: T2, CTLA4-Fc; assay: SPR Biacore T200, CTLA4-Fc amine-coupled, antibody as analyte
Procedure: (§3) Antigen CTLA4-Fc was immobilized on the sensor chip through amine coupling method. Antibody was used as the analyte. The data of dissociation (kd) and association (kₐ) rate constants were obtained using Biacore T200 evaluation software. The apparent equilibrium dissociation constants (KD) were calculated from the ratio of kd over kₐ.

CTLA4-Fc [7] = biological target: T2, CTLA4-Fc; assay: SPR Biacore T200, CTLA4-Fc amine-coupled, antibody as analyte; apparent KD
Procedure: as §3

human CTLA-4 [8] = biological target: T3, human CTLA-4 (human, UniProt P16410 36-161, limits assumed); assay: ratio of the IC50 for blocking CD80 to the IC50 for blocking CD86 on CTLA-4
T3 construct: also called HuCTLA-4; human cytotoxic T lymphocyte antigen-4
T3 sequence: T1 sequence (looked up)

human CTLA-4 [9] = biological target: T3, human CTLA-4; assay: ELISA, human CTLA-4 binding
cyno Macaque CTLA-4 = biological target: T4, cyno Macaque CTLA-4 (cyno Macaque, UniProt G7PL88 36-161); assay: ELISA, cyno CTLA-4 binding
T4 construct: ELISA antigen; construct not described; also called CynoCTLA-4; cyno CTLA-4
T4 sequence: T1 sequence (looked up) with S14N, I18T, L106M

human CTLA-4 [10] = biological target: T3, human CTLA-4; assay: ligand blocking assay with purified proteins; competitor CD80; CD80 as competing ligand, purified proteins
CTLA4-Fc [11] = biological target: T2, CTLA4-Fc; assay: cell-based or functional assay; remark: listed apart in the source
murine CTLA-4 = biological target: T5, murine CTLA-4 (murine, UniProt P09793 36-161, limits assumed); assay: ELISA, murine CTLA-4 binding assay
T5 construct: ELISA antigen; construct not described; also called mouse CTLA-4

human CTLA-4 [12] = biological target: T3, human CTLA-4; assay: ligand blocking assay with purified proteins; competitor CD86
CTLA4-his [13] = biological target: T1, CTLA4-his; assay: SPR Biacore 8k, purified antibody captured on chip, CTLA4-his as analyte (as the text says; same values as Table 5)
human CTLA-4 [14] = biological target: T3, human CTLA-4; assay: ligand blocking assay with purified proteins; competitor CD80

- koff (CTLA4-his [1]): ≤ 1e-05 s⁻¹
- Kd (CTLA4-his [2]): 0.0142 nM
- koff (CTLA4-his [2]): 1.03e-05 s⁻¹
- kon (CTLA4-his [2]): 727000 M⁻¹ s⁻¹
- Kd (CTLA4-his [3]): ≤ 0.0472 nM
- kon (CTLA4-his [3]): 212000 M⁻¹ s⁻¹
- IC50 (nM), Jurkat cell activation assay of Example 2 (IL-2) (CTLA4-Fc [4]): 3.1 nM
B1: Humanized Ab 15 (VH7 + VL3) (antibody, human IgG1, kappa, V domains shown)
VH: QVQLVQSGAEVVKPGASVKISCKASGYKFTDHFINWVKQNPGQGLEWIGDINPNNGGTNSNQKFEGKATLTVDKSISTAYMELRRLRSDDTAVYYCARLRREYFYAMDYWGQGTLVTVSS
VL: DIVMTQSPLSLPVTPGEPASISCRSSKSLLHSNGITYLYWYLQKPGQSPQLLIYQMSNLASGVPDRFSSSGSGTDFTLKISRVEAEDVGVYYCAQNLELPLTFGGGTKLEIKR
notes: Humanized IgG1 derived from MAb A4

- koff (CTLA4-his [5]): ≤ 1e-05 s⁻¹
- Kd (CTLA4-his [2]): 0.0131 nM
- kon (CTLA4-his [2]): 765000 M⁻¹ s⁻¹
- koff (CTLA4-Fc [6]): 5.09e-05 s⁻¹
- kon (CTLA4-Fc [6]): 621000 M⁻¹ s⁻¹
- Kd (CTLA4-Fc [7]): 0.082 nM
- Kd (CTLA4-his [3]): 0.0602 nM
- koff (CTLA4-his [3]): 2.59e-05 s⁻¹
- kon (CTLA4-his [3]): 430000 M⁻¹ s⁻¹
B2: chimeric IgG (antibody, V domains shown)
VH: EVQLRQSGPELVKPGTSVKISCKASGYKFTDHFINWVKQNHGKSLEWIGDINPNNGGTNSNQKFEGKATLTVDKSSSTAYMELRSLTSEDSAVYYCARLRREYFYAMDYWGQGTSVTVSS
VL: B1 VL with S7A, P8A, L9F, L11N, P15L, E17T, P18S, K79R, G105A, I111L
notes: Variable domains of MAb A4 on human IgG1 and kappa, expressed in HEK293; also called murine-human chimeric antibody derived from murine antibody A4

- CD80/CD86 Blocking Ratio (human CTLA-4 [8]): 6.49
- EC50 (human CTLA-4 [9]): 0.058 nM
- EC50 (cyno Macaque CTLA-4): 0.01 nM
- IC50 (human CTLA-4 [10]): 2.37 nM
- IC50 (nM), IL-2 secreted by Jurkat cells co-cultured with CHO/CD80 cells, Experiment 1 (CTLA4-Fc [11]): 19.3 nM
- IC50 (nM), IL-2 secreted by Jurkat cells co-cultured with CHO/CD80 cells, Experiment 2 (CTLA4-Fc [11]): 18.5 nM
- binding result (murine CTLA-4): no binding
- IC50 (human CTLA-4 [12]): 0.365 nM
B3: MAb A1 (16A9E9) (antibody, V domains shown)
VH: DVQLQESGPGLVKPSQSLSLTCSVTGDSITSGYYWNWIRQFPGNKLEWMGYISYDGINNYYPSLENRISITRDTSRNQFFLKLNSVTTEDTATYYCAREVVTPGVEVPAWYFDVWGTGTTVTVSS
VL: DIVLTQSPTSLTVSLGQRAIISCKASQSVSFAGTGLMHWYQQKPGQQPKLLIYRASNLEAGVPTRFSGSGSRTDFTLNIHPVEEDDAATYYCQQSREYPWTFGGGTTLEIN
notes: also called murine antibody A1

- CD80/CD86 Blocking Ratio (human CTLA-4 [8]): 2.01
- EC50 (human CTLA-4 [9]): 0.034 nM
- EC50 (cyno Macaque CTLA-4): 0.024 nM
- IC50 (nM), IL-2 secreted by Jurkat cells co-cultured with CHO/CD80 cells, Experiment 1 (CTLA4-Fc [11]): 11 nM
- IC50 (nM), IL-2 secreted by Jurkat cells co-cultured with CHO/CD80 cells, Experiment 2 (CTLA4-Fc [11]): 13.2 nM
- Kd (CTLA4-his [13]): 0.963 nM
- koff (CTLA4-his [13]): 0.000551 s⁻¹
- kon (CTLA4-his [13]): 573000 M⁻¹ s⁻¹
- koff (CTLA4-Fc [6]): 0.000551 s⁻¹
- kon (CTLA4-Fc [6]): 573000 M⁻¹ s⁻¹
- binding result (murine CTLA-4): no binding
- IC50 (human CTLA-4 [14]): 0.579 nM
- Kd (CTLA4-Fc [7]): 0.963 nM
- IC50 (human CTLA-4 [12]): 0.287 nM
B4: MAb A4 (13F10D7) (antibody, V domains shown)
VH: B2 VH
VL: DIVMTQAAFSNPVTLGTSASISCRSSKSLLHSNGITYLYWYLQKPGQSPQLLIYQMSNLASGVPDRFSSSGSGTDFTLRISRVEAEDVGVYYCAQNLELPLTFGAGTKLELK
notes: also called Murine MAb A4; murine antibody A4
